Experimental findings from publication PMC7494283 are described below.

The target of the assay is SARS-CoV-2 prefusion-stabilized S ectodomain trimer (SARS-CoV-2 | not stated) (UniProt P0DTC2).

For the substance S2X35 mAb (IgG1) (antibody), the SARS-CoV-2 pseudovirus neutralization IC50; hinders ACE2 binding was 0.5 µg/mL.
